The subject of this data set is Escherichia coli TOP10. Briefly: shrunken log2 fold change of peptide-encoding DNA abundance (4.5 h post-induction vs induction); higher = less antimicrobial activity (less host growth inhibition). The conditions noted are these: time post-induction: 4.5 h; library: site-saturation at positions 5, 18, 19, 20.
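Note: peptides expressed intracellularly from a pBAD plasmid library in pooled LB shake-flask culture, induced with 0.3% L-arabinose, DNA abundance read by NGS, three biological replicates, DESeq2 with apeglm shrinkage.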

Take RRIRERPPRLPRPRPRPYIAPRP: the “shrunken log2 fold change” value is -0.946. The same measure for RRIRVRPPRLPRPRPRPYMPPRP: -0.78; for RRIRRRPPRLPRPRPRPIIIPRP: 0.0103.

For the sequence RRIRIRPPRLPRPRPRPTLLPRP, the “shrunken log2 fold change” value was -0.374. The same measure for RRIRDRPPRLPRPRPRPQYDPRP: -0.0265; for RRIRHRPPRLPRPRPRPPLWPRP: 0.323; for RRIRIRPPRLPRPRPRPYAEPRP: -0.844. The same measure for RRIRQRPPRLPRPRPRPKKLPRP: -0.296; for RRIRDRPPRLPRPRPRPQILPRP: 0.132. For the sequence RRIRIRPPRLPRPRPRPEKHPRP, the “shrunken log2 fold change” value was -0.106. Regarding RRIRTRPPRLPRPRPRPHGDPRP, the “shrunken log2 fold change” value is -0.146. The same measure for RRIRMRPPRLPRPRPRPPCFPRP: 0.257. On to RRIRPRPPRLPRPRPRPHTHPRP, for which the “shrunken log2 fold change” value was -0.434. As to RRIRQRPPRLPRPRPRPELEPRP, the “shrunken log2 fold change” value was -0.0293.

On to RRIRRRPPRLPRPRPRPAAAPRP, for which the “shrunken log2 fold change” value was determined as 0.941. Then RRIRRRPPRLPRPRPRPRSNPRP, with 0.224; and RRIRRRPPRLPRPRPRPSNIPRP, with -0.528; and RRIRCRPPRLPRPRPRPWIRPRP, with -0.374. On to RRIRVRPPRLPRPRPRPCMWPRP, for which the “shrunken log2 fold change” value came out at 0.0384. As to RRIRMRPPRLPRPRPRPDQLPRP, the “shrunken log2 fold change” value turned out to be 0.391. Regarding RRIRLRPPRLPRPRPRPARRPRP, the “shrunken log2 fold change” value turned out to be 0.348. The same measure for RRIRKRPPRLPRPRPRPKYEPRP: 0.057; for RRIRIRPPRLPRPRPRPNSYPRP: -0.084; for RRIRWRPPRLPRPRPRPQLYPRP: 0.185. The same measure for RRIRKRPPRLPRPRPRPSQIPRP: 0.00892; for RRIRKRPPRLPRPRPRPACLPRP: 0.222; for RRIRSRPPRLPRPRPRPNIPPRP: -0.492. For RRIRQRPPRLPRPRPRPSMIPRP, the “shrunken log2 fold change” value is -0.603. For RRIRLRPPRLPRPRPRPFGVPRP, the “shrunken log2 fold change” value worked out at 0.028. The same measure for RRIRARPPRLPRPRPRPMWSPRP: 0.0725; for RRIRIRPPRLPRPRPRPPPHPRP: 0.392.

In the case of RRIRKRPPRLPRPRPRPPTAPRP, the “shrunken log2 fold change” value was 0.742. The same measure for RRIRERPPRLPRPRPRPNTRPRP: -0.0785; for RRIRFRPPRLPRPRPRPGHLPRP: -0.459. For the sequence RRIRIRPPRLPRPRPRPVPDPRP, the “shrunken log2 fold change” value is -0.0498. With RRIRSRPPRLPRPRPRPHFYPRP, the “shrunken log2 fold change” value stood at 0.166. The same measure for RRIRMRPPRLPRPRPRPIDMPRP: -0.0621; for RRIRQRPPRLPRPRPRPIIIPRP: -0.197; for RRIRGRPPRLPRPRPRPHLRPRP: -0.148. On to RRIRCRPPRLPRPRPRPKHMPRP, for which the “shrunken log2 fold change” value is -0.25. Then RRIRDRPPRLPRPRPRPQITPRP, with -0.0201.

For the sequence RRIRVRPPRLPRPRPRPLMMPRP, the “shrunken log2 fold change” value is -0.331. The same measure for RRIRYRPPRLPRPRPRPSVQPRP: -0.065; for RRIRVRPPRLPRPRPRPKSYPRP: -0.425; for RRIRFRPPRLPRPRPRPMFSPRP: -0.0614. Then RRIRHRPPRLPRPRPRPRAAPRP, with 0.368; and RRIRPRPPRLPRPRPRPLHLPRP, with -0.311; and RRIRLRPPRLPRPRPRPDKPPRP, with -0.228. The same measure for RRIRFRPPRLPRPRPRPRQHPRP: 0.0181; for RRIRFRPPRLPRPRPRPDLWPRP: 0.187; for RRIRIRPPRLPRPRPRPDTMPRP: -0.272. As to RRIRTRPPRLPRPRPRPCDKPRP, the “shrunken log2 fold change” value is -0.138. Then RRIRPRPPRLPRPRPRPYLEPRP, with -0.634; and RRIRRRPPRLPRPRPRPNWTPRP, with -0.285; and RRIRQRPPRLPRPRPRPPNGPRP, with -0.00787. The same measure for RRIRMRPPRLPRPRPRPGNQPRP: -0.0232.

For RRIRKRPPRLPRPRPRPYQYPRP, the “shrunken log2 fold change” value was -0.0576. The same measure for RRIRWRPPRLPRPRPRPIASPRP: 0.104. The same measure for RRIRTRPPRLPRPRPRPQNGPRP: -0.456. Take RRIRRRPPRLPRPRPRPLHNPRP: the “shrunken log2 fold change” value turned out to be 0.188. Then RRIRERPPRLPRPRPRPPEAPRP, with 0.192; and RRIRGRPPRLPRPRPRPRIRPRP, with 0.211. As to RRIRGRPPRLPRPRPRPTPHPRP, the “shrunken log2 fold change” value worked out at 0.906. Then RRIRYRPPRLPRPRPRPFSIPRP, with -0.000407; and RRIRWRPPRLPRPRPRPTFNPRP, with 0.00157. On to RRIRTRPPRLPRPRPRPHESPRP, for which the “shrunken log2 fold change” value was -0.0124. On to RRIRLRPPRLPRPRPRPTIDPRP, for which the “shrunken log2 fold change” value was -0.521. RRIRNRPPRLPRPRPRPFRPPRP: the “shrunken log2 fold change” value was -0.215.

As to RRIRRRPPRLPRPRPRPLNKPRP, the “shrunken log2 fold change” value was found to be 0.0514. The same measure for RRIRNRPPRLPRPRPRPAWQPRP: -0.0152.

In the case of RRIRWRPPRLPRPRPRPWGWPRP, the “shrunken log2 fold change” value is 0.276. The same measure for RRIRKRPPRLPRPRPRPHDCPRP: 0.108. With RRIRSRPPRLPRPRPRPNFEPRP, the “shrunken log2 fold change” value is -0.068. The same measure for RRIRVRPPRLPRPRPRPKNAPRP: -0.197; for RRIRNRPPRLPRPRPRPMDMPRP: -0.235; for RRIRFRPPRLPRPRPRPAHPPRP: 0.267. Then RRIRRRPPRLPRPRPRPTIGPRP, with -0.229. Then RRIRWRPPRLPRPRPRPRQLPRP, with -0.0051. As to RRIRRRPPRLPRPRPRPTSHPRP, the “shrunken log2 fold change” value came to 0.321. Then RRIRARPPRLPRPRPRPRRYPRP, with 0.255; and RRIRDRPPRLPRPRPRPTCAPRP, with 0.927.

Take RRIRYRPPRLPRPRPRPSWIPRP: the “shrunken log2 fold change” value was -0.341.

With RRIRKRPPRLPRPRPRPNHMPRP, the “shrunken log2 fold change” value is -0.106. RRIRTRPPRLPRPRPRPHTMPRP: the “shrunken log2 fold change” value was -0.406. Regarding RRIRQRPPRLPRPRPRPFNCPRP, the “shrunken log2 fold change” value is -0.0275.

As to RRIRIRPPRLPRPRPRPGGWPRP, the “shrunken log2 fold change” value worked out at 0.56.

With RRIRSRPPRLPRPRPRPILKPRP, the “shrunken log2 fold change” value is -0.469. Then RRIRYRPPRLPRPRPRPNIQPRP, with -1.58; and RRIRSRPPRLPRPRPRPDQYPRP, with -2.18; and RRIRPRPPRLPRPRPRPGDMPRP, with 0.00271. The same measure for RRIRFRPPRLPRPRPRPCGYPRP: -0.0542. On to RRIRHRPPRLPRPRPRPWHKPRP, for which the “shrunken log2 fold change” value is -0.113.

Consider RRIRCRPPRLPRPRPRPFREPRP, for which the “shrunken log2 fold change” value is -0.386. Consider RRIRNRPPRLPRPRPRPEVWPRP, for which the “shrunken log2 fold change” value was 0.815.

As to RRIRDRPPRLPRPRPRPTKSPRP, the “shrunken log2 fold change” value stood at 0.366. On to RRIRIRPPRLPRPRPRPSMNPRP, for which the “shrunken log2 fold change” value was -0.717.

For the sequence RRIRDRPPRLPRPRPRPPVDPRP, the “shrunken log2 fold change” value worked out at 0.361. The same measure for RRIRPRPPRLPRPRPRPTPDPRP: 0.356; for RRIRFRPPRLPRPRPRPPTVPRP: 0.499. RRIRYRPPRLPRPRPRPLVRPRP: the “shrunken log2 fold change” value was -0.0244. Take RRIRCRPPRLPRPRPRPEIFPRP: the “shrunken log2 fold change” value is -0.422. Then RRIRQRPPRLPRPRPRPERNPRP, with 0.0526. The same measure for RRIRGRPPRLPRPRPRPTNYPRP: 1.07; for RRIRPRPPRLPRPRPRPQNDPRP: -0.371; for RRIRKRPPRLPRPRPRPWFCPRP: -0.0352. The same measure for RRIRVRPPRLPRPRPRPEWWPRP: 0.191. Regarding RRIRIRPPRLPRPRPRPEVTPRP, the “shrunken log2 fold change” value is -0.0113. Consider RRIRWRPPRLPRPRPRPHMYPRP, for which the “shrunken log2 fold change” value was -0.443.

For RRIRKRPPRLPRPRPRPWQMPRP, the “shrunken log2 fold change” value came to 0.0764.

In the case of RRIRARPPRLPRPRPRPPMQPRP, the “shrunken log2 fold change” value turned out to be 0.781.

Consider RRIRGRPPRLPRPRPRPQYHPRP, for which the “shrunken log2 fold change” value was -0.141. For RRIRKRPPRLPRPRPRPPHMPRP, the “shrunken log2 fold change” value was 0.208. Then RRIRFRPPRLPRPRPRPAKMPRP, with 0.207; and RRIRWRPPRLPRPRPRPFAAPRP, with 0.862; and RRIRIRPPRLPRPRPRPAGVPRP, with 0.293. The same measure for RRIRCRPPRLPRPRPRPCHIPRP: -0.0941; for RRIRPRPPRLPRPRPRPPYKPRP: -0.113; for RRIRLRPPRLPRPRPRPYCQPRP: -0.797. Then RRIRGRPPRLPRPRPRPESSPRP, with 1.26. On to RRIRERPPRLPRPRPRPMIWPRP, for which the “shrunken log2 fold change” value is -0.21. The same measure for RRIRNRPPRLPRPRPRPQGFPRP: -0.00956; for RRIRNRPPRLPRPRPRPATKPRP: -0.0346; for RRIRWRPPRLPRPRPRPQVVPRP: -0.00458. On to RRIRIRPPRLPRPRPRPTKQPRP, for which the “shrunken log2 fold change” value is -0.242. As to RRIRKRPPRLPRPRPRPSSVPRP, the “shrunken log2 fold change” value was -0.378.

The values are drawn from the supplement of paper PMC9112550, “Optimization of the antimicrobial peptide Bac7 by deep mutational scanning” (BMC Biology, 2022).
